The values below come from publication PMC7473639, “Functionally distinct roles for T and Tbx6 during mouse development”.

In data set [1] the target is T1, Tbx6-DBD (T-domain) (mouse, UniProt P70327 90-277).
T1 sequence: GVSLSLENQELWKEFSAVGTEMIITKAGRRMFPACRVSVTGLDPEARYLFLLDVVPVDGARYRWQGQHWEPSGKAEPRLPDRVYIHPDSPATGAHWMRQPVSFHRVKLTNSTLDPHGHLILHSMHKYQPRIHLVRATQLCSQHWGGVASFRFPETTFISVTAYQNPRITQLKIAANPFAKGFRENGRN
As to the kind of experiment: quantitative EMSA; Hill coefficient 2.97; 25 mM HEPES pH 7.4, 75 mM NaCl, 1 mM DTT, 0.25 mM EDTA, 0.1% NP-40, 1 mM MgCl2, 10% glycerol, 10 µg/ml BSA, 0.1 mg/ml poly dI-dC; room temperature, 20 min (1 h). As to conditions: protein: recombinant; tags: N-terminal His (pET151/D-TOPO); Methods: removed by TEV; label: 32P 5' end label; blunt (annealed; only one strand given).

Data set [2] concerns the target T1, Tbx6-DBD (T-domain). As to the kind of experiment: quantitative EMSA; Hill coefficient 3.18; 25 mM HEPES pH 7.4, 75 mM NaCl, 1 mM DTT, 0.25 mM EDTA, 0.1% NP-40, 1 mM MgCl2, 10% glycerol, 10 µg/ml BSA, 0.1 mg/ml poly dI-dC; room temperature, 20 min (1 h). As to conditions: protein: recombinant; tags: N-terminal His (pET151/D-TOPO); Methods: removed by TEV; label: 32P 5' end label; blunt (annealed; only one strand given). A general note: In EMSA bound probe runs differently from free probe, usually more slowly.

Data set [3] deals with T2, T-DBD (Brachyury T-domain) (mouse, UniProt P20293 41-224).
T2 sequence: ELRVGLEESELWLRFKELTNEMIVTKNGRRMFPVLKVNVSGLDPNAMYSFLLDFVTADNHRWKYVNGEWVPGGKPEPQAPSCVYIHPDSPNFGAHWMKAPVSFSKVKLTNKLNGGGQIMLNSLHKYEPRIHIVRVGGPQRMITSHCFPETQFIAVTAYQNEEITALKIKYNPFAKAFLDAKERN
As to the kind of experiment: quantitative EMSA; Hill coefficient 14.42; 25 mM HEPES pH 7.4, 75 mM NaCl, 1 mM DTT, 0.25 mM EDTA, 0.1% NP-40, 1 mM MgCl2, 10% glycerol, 10 µg/ml BSA, 0.1 mg/ml poly dI-dC; room temperature, 20 min (1 h). To be noted: protein: recombinant; tags: N-terminal His (pET151/D-TOPO), removed by TEV; chain copies: 2; label: 32P 5' end label; blunt (annealed; only one strand given).

B1: Dll1 BS1 (dsDNA)
DNA 1: TCACTGTAGGTGTTGCTGTCCTGT
DNA 2: ACAGGACAGCAACACCTACAGTGA
Turning to B1, the dissociation constant Kd – broadly, the free concentration of one partner at which half of the binding sites on the other are occupied at equilibrium, for simple one-to-one binding – with Tbx6-DBD (T-domain) [1] turned out to be 1.53 µM.

B2: Dll1 BS2 (dsDNA)
DNA 1: TCCCGAGGTGTGATTCTTGGA
DNA 2: TCCAAGAATCACACCTCGGGA
With B2, the Kd with Tbx6-DBD (T-domain) [2] is 1.3 µM; in data set [3] it was 13.9 µM.
